Reference: patent US20090263900

Tests used:
ZFN r2182-8 (synthetic) = test: cell_activity; settings: pair with 2189-11; K562 cells, 50 bp HA linear donor 6.9 ug; targeted integration 2-9.4% over donors, 0% without ZFN
ZFN 2189-11 (synthetic) = test: cell_activity; settings: pair with r2182-8; K562 cells, 50 bp HA linear donor 6.9 ug; targeted integration 2-9.4% over donors, 0% without ZFN

CCCCACTGTGGGGTGG (double strand) [AAVS1 r2182-8 target half-site]
activity (ZFN r2182-8 (synthetic)): 9.4 % TI

ACTAGGGACAGGATTG (double strand) [AAVS1 2189-11 target half-site]
activity (ZFN 2189-11 (synthetic)): 9.4 % TI
